The values that follow come from US20230272088A1 (SYNTHEKINE, published 2023).

Assay [1] addresses T1, extracellular domain of hIFNGR1 (human, UniProt P15260 18-245, conjugated to Alexa647 (site not stated)).
T1 construct: UniProt P15260 residues 18-245; also called hIFNGR1-ECD; human IFNGR1 ECD
T1 sequence: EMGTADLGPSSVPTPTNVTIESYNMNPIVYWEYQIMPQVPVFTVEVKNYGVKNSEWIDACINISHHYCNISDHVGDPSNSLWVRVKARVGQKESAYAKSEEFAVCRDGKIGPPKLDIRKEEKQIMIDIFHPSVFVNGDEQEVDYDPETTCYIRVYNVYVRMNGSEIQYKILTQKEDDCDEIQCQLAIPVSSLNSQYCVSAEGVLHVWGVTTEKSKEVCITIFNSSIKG
As to the kind of experiment: flow cytometry, yeast-displayed VHH, 100 nM Alexa647-conjugated antigen. As for the experimental part: (§1) Binding of individual VHH to human and murine antigen was tested by flow cytometry. Briefly, 2E5 yeast cells expressing a single sdAb clone were added to each well of a 96 well plate. The first plate was incubated with 100 nM of human antigen conjugated to Alexa647 whereas the second plate was incubated with 100 nM of murine antigen conjugated to Alexa647. Yeast cells were washed 3 times with PBS containing 1% bovine serum albumin. Yeast cells were analyzed using flow cytometry and clones showing a mean fluorescence intensity of greater than 1000 were considered as binding molecules. Specificity of sdAbs was confirmed by incubating yeast cells with a irrelevant protein conjugated to Alexa647. Positive clones were sequenced, and sequences analyzed to identify unique clonotypes.
On the technique in general: A flow cytometer gives signals particle by particle.

The target in assay [2] is T2, extracellular domain of mIFNGR1 (mouse, UniProt P15261 26-254, conjugated to Alexa647 (site not stated)).
T2 construct: Origin and tags of the murine antigen are not described; UniProt P15261 residues 26-254; also called mIFNGR1-ECD; murine IFNGR1 ECD
T2 sequence: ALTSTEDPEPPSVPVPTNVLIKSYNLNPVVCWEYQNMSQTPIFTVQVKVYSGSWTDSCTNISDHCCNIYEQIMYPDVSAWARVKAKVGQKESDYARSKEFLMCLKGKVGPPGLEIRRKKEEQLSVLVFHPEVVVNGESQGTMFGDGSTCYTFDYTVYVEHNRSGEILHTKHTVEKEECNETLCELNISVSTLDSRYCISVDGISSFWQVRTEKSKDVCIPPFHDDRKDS
The assay is described as above. The protocol: as §1

B1: DR923 (VHH)
VHH: QVQLVESGGGLVQAGGSLRLSCAASRRTFMTYAMGWFRQAPGKEREFVAAISWSSGSTYYADSVKGRFTISRDNAKNTMYLQMNSLKPEDTAVYYCTASSIATMYGPNDYAGQGTLVTVSS
notes: also called anti-IFNGR1 sdAb VHH DR923
In the case of B1, the binding result in assay [1] and in assay [2] was “binds” each time.

B2: DR922 (VHH)
VHH: QVQLVESGGGLVRAGGSLRLSCAASGSITSINTMGWFRQAPGKQRELVAAITSGGSTNYADSVKGRFTISRDNARNTVYLQMYSLKPEDTAVYYCEADSMYFRGQGTQVTVSS
notes: also called anti-IFNGR1 sdAb VHH DR922
Turning to B2, the binding result in assay [1] and in assay [2] was “binds” each time.

B3: DR911 (VHH)
VHH: EVQLVESGGALVQAGGSLRLSCTVSGRSFSTYAMAWFRRAPGKERELVSAITVGGGSTYYVDSVKGRFTISRENAKNTLYLQMNNLKPEDTAIYICAARDYRRRSYAPEAEQYDYWGQGTQVTVSS
notes: also called anti-IFNGR1 sdAb VHH DR911
For B3, the binding result in assay [1] and in assay [2] was “binds” throughout.

B4: DR920 (VHH)
VHH: EVQLVESGGGLVQAGGSLRLSCAASGRSFANYAMGWFRQAPGKERETVAAISRGGGSTWYADSVKGRFTISKDNAKNTVYLQMNSLKPEDTAIYYCAARSYSGSYTYSFGEYDYWGQGTQVTVSS
notes: also called anti-IFNGR1 sdAb VHH DR920
In the case of B4, the binding result in assay [1] and in assay [2] was “binds” in each case.

B5: DR926 (VHH)
VHH: EVQLVESGGGLVQAGGSLRLSCAASGRTFSRYAMNWFRQAPGKEREFVAAISWSSGNTYVADSVKGRFTISRDNAKNTMYLQMNNLAPEDTAVYYCAATTIATMSDENTYWGQGTQVTVSS
notes: also called anti-IFNGR1 sdAb VHH DR926
For B5, the binding result in assay [1] and in assay [2] was “binds” in each case.

B6: DR924 (VHH)
VHH: QVQLVESGGGLVQAGGSLRLSCTASGRTFSRYAMGWFRQAPGKEREFVATISRSGGTTSYANSVKGRFTISRDNAKNTVYLQMNSLKTEDTAVYNCAARDGPAMGVFGSDYDYWGQGTLVTVSS
notes: also called anti-IFNGR1 sdAb VHH DR924
With B6, the binding result in assay [1] and in assay [2] was “binds” throughout.

B7: DR905 (VHH)
VHH: EVQLVESGGGLVQAGGSLRLSCVASGRTFTGYAMGWFRQAPGKEREFVAVITWSGATTYYSASVKGRFTLSRDNAKNTVYLQMNSLKSEDTAVYYCAIRIRDGVSPENPNEYGYWGQGTQVTVSS
notes: also called anti-IFNGR1 sdAb VHH DR905
As for B7, the binding result in assay [1] and in assay [2] was “binds” in each case.

B8: DR925 (VHH)
VHH: EVQLVESGGGLVQAGGSLVLSCAASGRTFSRYAMGWFRQAPGKEREFVAAISIGGGSADYADTVKGRFTISRNNAKNTMYLQMNSLKPEDTAVYYCAARTPRPSSSYFTPQDYEYWGQGTLVTVSS
notes: also called anti-IFNGR1 sdAb VHH DR925
For B8, the binding result in assay [1] and in assay [2] was “binds” each time.

B9: DR915 (VHH)
VHH: EVQLVESGGGLVQAGGSLRLSCAAARRTLHNFAMAWFRQAPGKEREFVAAISKGGGSADYADSVKGRFTISRDNAKNTVYLQMNSLKPEDTAVYYCAANDLASYSDSSYTSTSRYDYWGQGTQVTVSS
notes: also called anti-IFNGR1 sdAb VHH DR915
Regarding B9, the binding result in assay [1] and in assay [2] was “binds” throughout.

B10: DR917 (VHH)
VHH: EVQLVESGGGLVQAGGSLRLSCAASGRTFSGYNMGWFRQAPGKEREFVAAIAWAGSRTYYTDSVKGRFTISRDNAKNTMYLQMNTLRPEDTAVYYCAAHDETYYRLDRVDLYTHWGQGTLVTVSS
notes: also called anti-IFNGR1 sdAb VHH DR917
As to B10, the binding result in assay [1] and in assay [2] was “binds” in each case.

B11: DR916 (VHH)
VHH: EVQLVESGGGLVQPGGSLRLSCTASGRPRTTYAMGWFRQAPGKEREIVAAISKAGGSTYVADSAKGRFAISKDNAKNTVYLQMNSLKPEDTAVYYCAARAGFAAQIFEYDYWGQGTLVTVSS
notes: also called anti-IFNGR1 sdAb VHH DR916
Consider B11, for which the binding result in assay [1] and in assay [2] was “binds” in each case.

B12: DR913 (VHH)
VHH: EVQLVESGGGLVQAGGFLRLSCAASGRTFSSYAMGWFRQIPGKERELVAAISSWSGGSTYYADSVKGRFTISRDNAKNTVYLQMLSLKPEDTAVYYCTTGDYYSDYFKYDNENWGKGTQVTVSS
notes: also called anti-IFNGR1 sdAb VHH DR913
Regarding B12, the binding result in assay [1] and in assay [2] was “binds” each time.

B13: DR910 (VHH)
VHH: EVQLVESGGGLVQTGGSLRLSCAASGRTFSSYAMAWFRQAPGKEREFVAAISILGGSADYEDSVQGRFTISRDNAKNTMYLQMNSLKPEDTAVYYCAARRPAPSDSYWSSTSYAYWGQGTLVTVSS
notes: also called anti-IFNGR1 sdAb VHH DR910
With B13, the binding result in assay [1] and in assay [2] was “binds” in each case.

B14: DR918 (VHH)
VHH: EVQLVESGGGLVQAGGSLRLSCATSGLTDSTYGMAWFRQAPGKEREFVAAISRAGGSADHADSVKGRFTVSRDNAKKMVYLQMNSLKPEDTAVYYCASGRSYSSPYDYFNALAYSYWGQGTQVTVSS
notes: also called anti-IFNGR1 sdAb VHH DR918
For the molecule B14, the binding result in assay [1] and in assay [2] was “binds” each time.

B15: DR906 (VHH)
VHH: EVQLVESGGGLVQAGGSLRLSCAASGSTFSTYVMGWFRQAPGKEREFVAAISRSGGTTTYADSVKGRFDISRDNGKNTLFLQMNSLIPEDTAAYYCAARAGPAIGRTANDYHSWGQGTLVTVSS
notes: also called anti-IFNGR1 sdAb VHH DR906
Turning to B15, the binding result in assay [1] and in assay [2] was “binds” in each case.

B16: DR914 (VHH)
VHH: EVQLVESGGGLVQAGGSLTLSCVASGRAFSNSAMAWFRQTPGKEREFVSAISRGGGSTDYADSVKGRFTISKDNAKNTVYLQMNSLKPEDTAVYYCAMRYYSGRYYESLEYDYWGQGTQVTVSS
notes: also called anti-IFNGR1 sdAb VHH DR914
For B16, the binding result in assay [1] and in assay [2] was “binds” each time.

B17: DR912 (VHH)
VHH: EVQLVESGGGLVQAGGSLRLSCAPSGRTFSSYAMAWFRQPPGKEREFVAAITVSGASTYYADSVKGRFTISRDNAKNSMYLQMNSLKPEDTAVYYCAAGGPGTIFPDYDYWGQGTQVTVSS
notes: also called anti-IFNGR1 sdAb VHH DR912
For B17, the binding result in assay [1] and in assay [2] was “binds” each time.

B18: DR909 (VHH)
VHH: EVQLVESGGGLVQAGGSLRLSCAASGRTFGTSFGALSMGWFRQAPGKEREFVAAITRNTGRTFYADSVKDRFTISRDNAKNTASLQMNSLEPEDTAVYICAATNSYDDLRRSYAYNYWGQGTQVTVSS
notes: also called anti-IFNGR1 sdAb VHH DR909
Turning to B18, the binding result in assay [1] and in assay [2] was “binds” in each case.
